In test [1] the target is large (50S) ribosomal subunit from Staphylococcus aureus (S. aureus) (UniProt Q2FW16).
The target is the same in test [2]. This is another data set of the same source.

Chain of UniProt Q2FW16 (Q2FW16 whole entry, looked up): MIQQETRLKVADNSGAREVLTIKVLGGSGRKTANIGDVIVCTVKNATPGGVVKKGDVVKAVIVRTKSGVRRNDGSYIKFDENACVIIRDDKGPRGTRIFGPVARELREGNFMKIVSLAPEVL

In the case of “Ribosomal silencing factor S (RsfS) from Staphylococcus aureus, wild type (natural protein)”, the efficiency of translation inhibition in the S. aureus cell-free system at 6 mM Mg2+ (370 mM K+) in test [1] was 80%. In addition, in test [2], the Mg2+ concentration at which half of the vacant 70S ribosomes are dissociated into 50S + 30S (sucrose gradient profiles, 2X molar excess of RsfS, 3-5 mM Mg2+) turned out to be 5 mM Mg2+ and the anti-association activity at 4 mM Mg2+ (relative amount of dissociated 50S + 30S subunits, sucrose gradient profiles) is 100 % activity.

“RsfS E70A mutant from Staphylococcus aureus (natural protein)” returned an efficiency of translation inhibition in the S. aureus cell-free system at 6 mM Mg2+ (370 mM K+) in test [1] of 70%. Besides, in test [2], the Mg2+ concentration at which half of the vacant 70S ribosomes are dissociated into 50S + 30S (sucrose gradient profiles, 2X molar excess of RsfS, 3-5 mM Mg2+) was found to be 4.4 mM Mg2+ and the loss of anti-association activity at 4 mM Mg2+ (relative amount of dissociated 50S + 30S subunits, sucrose gradient profiles) (% of activity lost) worked out at 20.

With “RsfS Y98A mutant from Staphylococcus aureus (natural protein)”, in test [1], the efficiency of translation inhibition in the S. aureus cell-free system at 6 mM Mg2+ (370 mM K+) turned out to be 35%. In test [2], the Mg2+ concentration at which half of the vacant 70S ribosomes are dissociated into 50S + 30S (sucrose gradient profiles, 2X molar excess of RsfS, 3-5 mM Mg2+) is 3.4 mM Mg2+ and the loss of anti-association activity at 4 mM Mg2+ (relative amount of dissociated 50S + 30S subunits, sucrose gradient profiles) (% of activity lost) was determined as 80.

(Values after paper PMC9503621.)
